± gives the uncertainty stated by the source.
Test: amyloid nucleation score (Sup35N fusion, yeast selection) (log enrichment); library NNK1; higher = more nucleation; inactive = no reads after selection
How it was run: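 Sup35N was fused to peptides of 20 random codons and expressed in psi-negative yeast, which were induced with 100 μM copper sulfate for 24 hours and then grown on medium lacking adenine and uracil for 7 days at 30°C. Plasmid inserts from input and output were sequenced on Illumina. The nucleation score is the DiMSum log enrichment of output over input reads, centred on the mode score of non-aggregating sequences. Sequences with under 100 input reads were left out, and random libraries had three technical output replicates.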

| Substance | amyloid nucleation score |
| --- | --- |
| MRLSQGGPLRLPRVTFSRYC | 0.027 ± 1.7 |
| MRLTNGSCHFVLF | -0.745 ± 1.7 |
| MRMISFKTVGALFVYCLSLG | 0.313 ± 0.49 |
| MRNYGILFPYLFYMSVSRVL | -0.067 ± 1.7 |
| MRQAGACNLRQSHVEQVCQQ | 0.135 ± 0.38 |
| MRSFAFWNYVFGRGMFPVFW | -0.272 ± 0.41 |
| MRTRWSIIMDVRYDNSV | 1.55 ± 0.21 |
| MSAIVSHYLVHCKFQSGNSH | 3.63 ± 0.12 |
| MSLNRDNDYSKLLFGSKVSQ | 0.477 ± 0.43 |
| MSLPYVICQQDR | -0.794 ± 1.4 |
| MSLSAVSNMVLMKGVGMR | -0.73 ± 0.93 |
| MSMDWICVTTYKAWSARLER | 0.689 ± 0.26 |
| MSNRISLQQLDRCQDDFMA | 0.034 ± 0.38 |
| MSSHVTHAS | 0.495 ± 1 |
| MSSLQG | -0.246 ± 1.1 |
| MSSSKGVVYDCFCSMWWLLP | 0.018 ± 0.73 |
| MSYCFF | 0.022 ± 0.55 |
| MTIQVTIGNYLGLVYFFPLS | 1.05 ± 0.97 |
| MTMAFRKLFSVVRILMNMRL | 0.059 ± 0.3 |
| MTMKLFRQD | -0.049 ± 1.1 |
| MTPEAL | -0.063 ± 0.43 |
| MVDSVMD | -0.21 ± 0.79 |

| Substance | amyloid nucleation score |
| --- | --- |
| MVDSYWGWCAMK | 1.22 ± 0.61 |
| MVGDARFYAANSG | 1.14 ± 0.79 |
| MVGVLVKVREKAVMGPGQFG | 0.804 ± 0.29 |
| MVHMCWLTME | 0.454 ± 0.25 |
| MVKYPVTKNSSLPCSTRLTF | 1.01 ± 0.47 |
| MVLRHRKCLSAFPWAFHAPY | 1.49 ± 0.85 |
| MVNWEARQ | 0.862 ± 0.64 |
| MVRCNYRRRVGGDT | 0.905 ± 0.69 |
| MVRWFWVVGHQVFTYVRLWR | -0.076 ± 0.74 |
| MVSSCWICRALKAYVLQPWV | 0.108 ± 0.72 |
| MWFRTAST | 6.339 ± 0.047 |
| MWGFWTFFDGLAYPFVMHKT | 0.054 ± 0.53 |
| MWLKSNNWRNKADDLQGKVD | 0.523 ± 0.58 |
| MWTNWDVLPELDGTPRALLW | -0.501 ± 0.99 |
| MYASRNNFNSFTGYRYSSVS | -0.077 ± 0.21 |
| MYCITDEVNRYKCCKTGKEF | 0.634 ± 0.32 |
| MYCWY | inactive |
| MYETWFTFRWKLTDI | -0.007 ± 0.39 |
| MYGLLEDERTVCQWKMICVV | -0.157 ± 0.69 |
| MYISYLYFCYKRSMYFG | 0.718 ± 1.1 |
| MYLCVRLGSIKYFSGVLWS | 0.056 ± 1.4 |
| MYMIWEQGKPCSILDTHTVT | 0.598 ± 0.26 |

| Substance | amyloid nucleation score |
| --- | --- |
| MYVFRVLASSVWKSMMLFDL | 0.146 ± 0.23 |
| MYWESSSHEHVSEKPVRLIL | 1.07 ± 0.84 |
| NADDISVRTGNTQESLSW | 0.275 ± 1.2 |
| NADVTCVISGLRKTYCVSDD | 0.577 ± 0.64 |
| NAPLEWSSGHASQIVLGHVT | -0.177 ± 0.69 |
| NATNLENQKFTEDALKSPGW | -0.037 ± 0.71 |
| NAVSIRGLRVDRQN | 0.112 ± 0.55 |
| NCAFVAS | -0.019 ± 0.34 |
| NCGGRVSG | 8.076 ± 0.06 |
| NCIVFVSPASTKDCKWGAAS | 1.66 ± 0.35 |
| NCLRNWHKFI | -0.845 ± 0.7 |
| NCRGKREMGRKSSRSLVHGW | -0.039 ± 0.49 |
| NCYMT | 0.386 ± 0.31 |
| NDACYWEFCYADKLYFEWWF | 1.04 ± 0.44 |
| NDCKSQRSRNSMGCQ | inactive |
| NDDRFSLLCGRGRSGLSEWC | inactive |
| NDDVSVSVSWPDMEVRWK | -0.179 ± 0.29 |
| NDRKYLCMMRILMSNRRVLQ | 0.553 ± 0.3 |
| NDVPLLWVISASCG | 1.02 ± 0.44 |
| NDYFY | -0.598 ± 1.4 |

— the supplement of paper PMC12042874
